# Laboratory results: IntAct's records for PubMed 19800331
# B1: BAG family molecular chaperone regulator 1 (Homo sapiens), Q99933 (parent)
# chain: MAQRGGARRPRGDRERLGSRLRALRPGREPRQSEPPAQRGPPPSGRPPARSTASGHDRPTRGAAAGARRPRMKKKTRRRSTRSEELTRSEELTLSEEATWSEEATQSEEATQGEEMNRSQEVTRDEESTRSEEVTREEMAAAGLTVTVTHSNEKHDLHVTSQQGSSEPVVQDLAQVVEEVIGVPQSFQKLIFKGKSLKEMETPLSALGIQDGCRVMLIGKKNSPQEEVELKKLKHLEKSVEKIADQLEELNKELTGIQQGFLPKDLQAEALCKLDRRVKATIEQFMKILEEIDTLILPENFKDSRLKRKGLVKKVQAFLAECDTVEQNICQETERLQSTNFALAE
# Variants of: B1
# Settings: with hsp7c_human HSPA8, P11142
# Chain of hsp7c_human HSPA8, P11142 (P11142 whole entry, looked up): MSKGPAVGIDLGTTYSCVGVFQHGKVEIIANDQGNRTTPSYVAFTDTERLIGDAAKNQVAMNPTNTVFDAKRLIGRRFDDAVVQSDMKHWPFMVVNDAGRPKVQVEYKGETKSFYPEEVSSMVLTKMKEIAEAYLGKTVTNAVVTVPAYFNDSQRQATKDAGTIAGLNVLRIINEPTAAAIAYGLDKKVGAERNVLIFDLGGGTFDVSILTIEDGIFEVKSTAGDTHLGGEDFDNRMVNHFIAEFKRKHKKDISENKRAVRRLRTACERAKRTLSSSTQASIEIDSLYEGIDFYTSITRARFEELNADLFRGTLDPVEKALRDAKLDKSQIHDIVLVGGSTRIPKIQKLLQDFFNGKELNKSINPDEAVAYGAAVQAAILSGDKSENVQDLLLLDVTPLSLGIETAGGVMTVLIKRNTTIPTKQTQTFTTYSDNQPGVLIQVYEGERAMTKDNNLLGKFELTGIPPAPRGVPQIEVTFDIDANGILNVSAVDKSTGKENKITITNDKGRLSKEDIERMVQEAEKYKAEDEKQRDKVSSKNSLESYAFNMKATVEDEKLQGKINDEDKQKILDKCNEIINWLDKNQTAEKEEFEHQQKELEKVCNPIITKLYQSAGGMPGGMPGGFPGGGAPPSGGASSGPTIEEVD
row,Variant,effect of a mutation on the interaction
1,R308A,decreasing interaction

# Variants of: B1
# Settings: with hsp7c_human HSPA8, P11142
# Remark: another data set of the same source
row,Variant,effect of a mutation on the interaction
1,K309A,decreasing interaction
